Test results from the supplement of paper PMC10567573.

B1: TRIM63 (parent)
chain: QEKKLSFIEALIQQYQEQLDKSTK

Variants of: B1
Assay: protein stability index of a GFP-peptide fusion (GPS, HEK-293T) (PSI 1-6); higher = more stable
Conditions: c terminus: a fixed tail appended
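Note: lentivirally expressed fusions sorted by FACS into six bins by GFP to DsRed ratio, PSI derived from sequencing read proportions per bin multiplied by bin number.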

Protein stability index of substitutions, site by site:
Q13: L 2.1; W 1.32; K 2.64; F 1.84; P 4.35; R 2.7; D 3.54; T 2.74; C 2.67; I 2.02; V 1.98; G 2.53; N 2.79; E 3.54; Y 2.35; M 2.02; A 2.46
Q18: M 1.81; F 1.98; C 2.34; W 3; L 2.25; P 3.31; V 2.3; A 2.37; K 2.58; S 2.71; E 2.51; I 2.08; H 1.79; Y 2.49; G 1.95; D 3.54; R 2.51; N 3.28; T 2.93
Q16: F 2.07; W 1.74; I 1.87; V 2.7; M 1.48; T 2.62; K 4.03; C 2; Y 2.32; E 3.09; A 2.5; G 3.81; R 2.38; H 2.57; N 3.05; L 1.49; S 2.41
A10: F 2.28; K 2.39; E 3.42; W 1.63; H 2.75; G 3.33; Y 2.06; Q 2.89; M 1.96; N 2.73; P 3.98; I 2.54; S 2.89; R 2.53; D 3.47; L 2.37; V 2.38; C 2.14; T 2.72
I12: S 4.28; N 4.47; R 2.33; T 4.45; G 3.98; D 5.25; Y 2.37; E 4.39; C 3.87; F 3.18; W 2.11; A 3.8; L 3.51; M 2.95; V 2.6; P 5.67; K 3.7
D20: M 2.98; N 2.08; R 1.77; V 1.2; G 2.13; L 1.72; T 2.47; H 1.77; W 1.83; C 1.69; Q 1.92; F 1.66; Y 1.48; P 2.46; A 2.5; I 1.31
F7: A 4.05; L 3.06; Y 2.48; P 4.36; M 3.33; V 3.45; R 3.92; C 3.23; N 4.97; G 4.64; D 4.53; I 2.58; T 3.98; E 4.38; H 4.2; S 4.28; W 4.19; Q 4.05
K24: W 1.67; I 1.95; D 3.66; G 2.71; N 2.79; E 3.51; Q 2.68; T 2.67; F 1.71; A 2.25; H 2.95; L 2.47; M 2.32; V 2.31; S 2.61; Y 1.36; R 1.84; C 2.99; P 3.33
I8: L 2.14; V 1.28; P 4.89; G 5.05; K 4.17; F 2.78; Y 3.63; H 4.92; W 3.56; R 4.08; T 2.64; N 5.18; A 3.83; E 4.76; Q 4.32; M 3.96; C 4.38; D 4.44
L19: E 3.41; M 3.18; R 2.91; P 3.26; W 2.32; H 3.54; Q 3.21; K 4.08; D 3.77; A 4.3; I 3.19; F 2.38
K21: H 2.23; S 2.78; I 2.86; M 2.27; E 3.26; T 1.75; G 2.02; L 2.17; Q 3; D 3.76; C 2.29; F 2.54; V 3.04; Y 2.1; P 1.99; A 2.92; W 1.63
E9: T 1.79; P 3.96; A 1.93; F 1.8; H 2.33; C 2.05; S 2.68; N 2.64; Y 1.57; W 1.6; Q 2.76; K 3.62; R 2.82; M 2.22; I 2.06; V 1.7; L 1.39
L5: V 2.57; Y 2.08; W 2.12
T23: A 2.75; E 2.57; Y 2.26; K 2.49; W 1.09; P 2.24; H 2.53; C 2.72; V 2.67; G 2.77; I 1.84; L 1.51; D 3.33; M 1.92; S 2.7; R 2.66; N 2.31; Q 2.89
L11: D 5.13; R 4.58; N 4.78; G 4.46; V 2.65; C 4.29; K 4.45; Q 4.81; Y 3.31; A 3.71; S 5.13; I 2.02; M 3.09; H 4.63; W 3.43; E 4.73; P 5.29; T 3.96; F 2.79
Y15: Q 3.87; T 2.98; I 2.1; P 4.56; D 4.75; R 4.63; N 3.75; H 3.38; F 1.86; A 2.61; K 3.9; G 4.41; W 1; S 3.52; V 2.09; C 2.1; L 2.08
Q14: D 3.17; G 3.13; E 2.91; W 1.07; M 2.44; P 3.86; L 2.89; Y 1.95; V 2.49; S 3.5; A 2.43; T 3.07; C 2.8; H 2.03; I 2.98; N 3.03; R 2.2
E17: Y 2.84; T 2.68; W 1.3; N 1.81; F 2.25; L 1.8; K 2.16; I 2.14; D 3; C 2.47; Q 2.65; S 2.26; M 2.08; A 2; G 2.21; H 2.11; R 1.45; V 1.75
S6: H 2.39; W 1.46; E 2.86; V 2.42; K 2.62; P 3.17; Y 2.09; M 2.03; R 3.16; L 2.2; N 2.59; I 1.74; T 2.54; Q 2.43; C 2.74; A 2.16; D 3.02; F 2.32; G 2.8
S22: I 2.74; V 2.45; M 2.65; C 2.26; A 2.23; T 2.75; D 3.1; E 3.21; G 2.26; F 3.09; R 1.98; Q 2.43; W 1.92; H 2.7; N 2.89; P 3.1; K 2.52
